From PMC7144941 come the findings set out here.

The target of data set [1] is catalytically inactive H97A mutant of mouse endonuclease G lacking the N-terminal mitochondrial localization sequence (mouse). Kind of data set: crystal structure.
The target of data set [2] is T1, i-mEndoG H97A (catalytically inactive mouse endonuclease G) (mouse, UniProt O08600 42-294, H138A).
T1 sequence: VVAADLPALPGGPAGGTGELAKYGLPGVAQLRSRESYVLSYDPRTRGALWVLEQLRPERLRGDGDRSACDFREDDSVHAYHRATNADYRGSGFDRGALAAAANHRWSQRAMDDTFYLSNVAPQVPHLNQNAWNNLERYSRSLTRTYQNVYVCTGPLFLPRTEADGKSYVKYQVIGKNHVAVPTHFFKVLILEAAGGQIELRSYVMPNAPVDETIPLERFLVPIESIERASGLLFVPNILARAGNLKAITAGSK
As to the kind of experiment: X-ray crystallography.

As for “catalytically inactive H97A mutant of mouse endonuclease G lacking the N-terminal mitochondrial localization sequence (enzyme)”, the stoichiometry N in data set [1] was determined as 2.

B1: decanucleotide d(CCGGCGCCGG) (dsDNA)
DNA 1: CCGGCGCCGG
DNA 2: CCGGCGCCGG
For the molecule B1, the binding result in data set [2] is “binds”.
